For the experiment, the target named is CD20 on ARH-77 tumor cells (CD20+ plasma cell leukemia cell line, ATCC CRL-1621) (human) (UniProt P11836). Put plainly: cell-based or functional assay.
UniProt P11836, sequence (P11836 whole entry): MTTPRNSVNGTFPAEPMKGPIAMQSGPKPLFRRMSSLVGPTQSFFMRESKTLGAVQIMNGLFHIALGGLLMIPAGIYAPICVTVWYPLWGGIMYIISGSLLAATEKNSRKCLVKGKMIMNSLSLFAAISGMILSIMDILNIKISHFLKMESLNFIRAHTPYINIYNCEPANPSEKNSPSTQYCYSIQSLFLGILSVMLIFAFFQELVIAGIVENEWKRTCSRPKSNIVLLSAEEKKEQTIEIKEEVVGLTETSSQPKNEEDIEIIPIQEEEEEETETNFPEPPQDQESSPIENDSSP

Substance obinutuzumab (antibody) showed an AB-101 killing activity (ADCC, 4 hour caspase assay against ARH-77 cells) of 66 fold.

Values taken from US20240180962A1.
